B1: DYRK1B (parent)
chain: KKVLNHGYDDDNHDYIVRSGERWL
B2: CCDC6 (parent)
chain: FTPPTSLTRAGMSYYNSPGLHVQH

Variants of: B1
Experiment: protein stability index of a GFP-peptide fusion (GPS, HEK-293T) (PSI 1-6); higher = more stable
Settings: c terminus: a fixed tail appended
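Further: lentivirally expressed fusions sorted by FACS into six bins by GFP to DsRed ratio, PSI derived from sequencing read proportions per bin multiplied by bin number.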

Protein stability index: each site, then its substitutions
L24: S 3.58; E 4.07; H 3.57; D 4.08; G 3.81; V 3.8; R 3.55; M 3.49; Q 3.69; I 3.33; Y 3.03; T 3.51; P 3.82; F 2.81; N 3.75; A 3.37; W 2.85; K 3.85; C 3.46
R18: N 2.9; G 3.45; I 2.62; M 2.39; H 3.4; W 2.38; Y 2.48; P 3.24; C 2.82; E 3.75; K 3.74; V 2.67; F 2.39; D 3.78; S 3.1; Q 3.78; T 2.92; A 3; L 2.39
E21: R 2.83; T 2.7; N 2.67; Q 3.05; W 2.57; D 2.86; A 2.97; L 3.02; H 2.4; Y 2.32; G 2.57; C 2.19; S 2.42; K 3.1; V 2.28; M 2.57; I 2.16; P 2.61; F 2.16
V17: E 4.03; Y 2.94; A 3.11; L 3.07; M 2.98; F 2.74; K 3.4; R 3.53; P 3.86; G 3.36; T 2.97; S 3.36; W 2.56; C 2.6; Q 3.57; I 2.55; D 3.56; H 3.46; N 3.65
W23: S 4.47; V 4.31; I 3.9; K 4.3; Q 4.2; F 3.62; M 3.93; L 3.88; H 3.99; C 3.8; G 4.07; A 3.81; T 4.3; E 4.46; Y 3.64; R 3.6; D 4.73; P 3.7; N 4.56
S19: L 2.42; T 3.06; P 2.51; Y 2.53; K 3.2; H 3.91; E 3.25; M 2.6; N 3.22; D 3.64; W 2.21; Q 3.46; R 2.78; G 3.25; V 2.98; C 2.59; I 2.07; F 2.29; A 3.57
I16: S 3.68; Y 3.89; V 3.86; R 3.49; P 3.55; W 2.71; T 3.47; Q 3.58
R22: N 3.31; Q 3.53; D 3.44; L 2.25; E 3.58; A 3.15; Y 2.52; T 2.83; V 2.6; P 3.16; S 3.35; K 3.29; H 3.13; I 2.17; F 1.91; M 2.57; G 3.19; W 2.06; C 2.85
G20: S 3.01; I 2.73; A 2.73; Y 2.23; N 3.29; Q 3.34; D 3.22; F 2.04; E 3.65; R 3.54; L 1.88; H 2.67; T 2.83; K 3.32; C 2.95; V 2.03; P 3.2; W 2.31; M 2.13

Variants of: B2
Experiment: as above
Settings: c terminus: a fixed tail appended

Protein stability index: each site, then its substitutions
P3: Q 2.32; N 2.02; I 1.63; M 1.87; A 1.73; Y 1.93; D 2.1; H 1.79; C 2; K 2.78; L 1.98; F 1.95; G 2.07; E 2.16; S 2.1; W 1.21; V 2.08; T 2.35; R 2.14
T5: A 2; F 1.69; C 1.74; P 1.68; E 2.29; D 1.89; M 2.42; V 2.01; I 1.84; Y 1.01; Q 1.53; L 2.29; S 1.84; K 1.54; R 1.96; H 1.72; G 2.07; N 1.81
A10: F 2.33; H 2.09; M 1.9; I 1.75; D 1.37; E 2.15; K 2.01; P 1.91; L 1.2; N 2.23; Q 2
R9: D 2.77; G 1.59; M 1.81; V 1.58; Q 2.54; Y 3.32; T 1.47; C 2.58; L 2.82; S 1.79; A 2.1; F 2.94; H 1.27; K 1.71; E 2.63; N 1.65; I 1.45
F1: C 1.52; R 2.19; M 3.01; P 2.82; D 3.56; K 2.49; N 2.88; T 2.94; G 2.54; H 2.9; I 2.46; S 2.01; W 2.14; E 2.85; Y 1.91; L 1.89; A 2.65; Q 2.64; V 2.41
T8: I 2.14; N 2.06; G 2.06; S 1.83; M 1.92; A 1.76; C 2.73; Q 2.53; W 1.78; L 1.78; F 2.56; P 2.46; H 1.56; V 1.85; D 1.82; Y 1.5; K 1.46; E 1.41
S6: N 1.84; A 1.51; T 1.73; L 2.45; H 1.66; V 2.1; W 2.27; Q 2.21; K 1.51; E 1.91; M 1.65; C 2.1; I 2.2; G 2; R 2.47; F 2.98; D 1.79; Y 1.84
T2: H 1.85; P 2.26; M 2.6; W 2.67; I 2.6; N 1.55; Q 1.91; A 1.84; C 1.91; G 2.47; E 2.83; Y 1.69; D 2.1; R 2.17; L 1.87; F 1.48; K 1.79; S 1.5; V 1.96
L7: E 2.12; H 2.28; F 2.4; W 2.33; M 2.29; T 1.89; K 2.59; A 2.21; P 2.33; G 1.66; S 1.7; V 1.56; N 1.7; Q 2.38; I 1.41; R 2.04; D 1.62; Y 2.39; C 2.61
P4: I 1.51; A 1.15; H 2.19; C 2.3; N 3.07; F 1.97; M 2.04; R 1.83; Q 2.48; D 2.23; S 1.42; V 2.5; Y 3.21; T 2.27; E 1.99; L 4.29

Reference: the supplement of paper PMC10567573
